Source: article PMC4422259, “Arc is a flexible modular protein capable of reversible self-oligomerization” (Biochemical Journal, 2015)

Experiments:
[1] = molecular target: the molecule itself; assay: dynamic light scattering; hArc 22 μM (1 mg/ml) in 10 mM potassium phosphate, pH 7.4, at 36°C
[2] = molecular target: the molecule itself; assay: dynamic light scattering; hArc 22 μM (1 mg/ml) in 10 mM potassium phosphate, pH 7.4, without salt, at 20°C and 90°C

B1: recombinant human Arc (activity-regulated cytoskeleton-associated protein), wild type, cleaved from the His-ZZ-hArc fusion protein (natural protein, UniProt Q7LC44 1-396, looked up)
chain: MELDHRTSGGLHAYPGPRGGQVAKPNVILQIGKCRAEMLEHVRRTHRHLLAEVSKQVERELKGLHRSVGKLESNLDGYVPTSDSQRWKKSIKACLCRCQETIANLERWVKREMHVWREVFYRLERWADRLESTGGKYPVGSESARHTVSVGVGGPESYCHEADGYDYTVSPYAITPPPAAGELPGQEPAEAQQYQPWVPGEDGQPSPGVDTQIFEDPREFLSHLEEYLRQVGGSEEYWLSQIQNHMNGPAKKWWEFKQGSVKNWVEFKKEFLQYSEGTLSREAIQRELDLPQKQGEPLDQFLWRKRDLYQTLYVDADEEEIIQYVVGTLQPKLKRFLRHPLPKTLEQLIQRGMEVQDDLEQAAEPAGPHLPVEDEAETLTPAPNSESVASDRTQPE
notes: human Arc (activity-regulated cytoskeleton-associated protein); called full-length hArc; Vector pETZZ_1a; also called WT hArc; Arc/Arg3.1; source: E. coli BL21-CodonPlus, auto-induction medium, purified (Ni-NTA, TEV cleavage, second Ni-NTA flow-through); not shown: His, N-terminal, cleaved; ZZ domain, N-terminal, cleaved
- stoichiometry N [1]: > 12 subunits
- stoichiometry N [2]: ≥ 40 subunits
